Test results taken from US20210130452A1 (Merck KGaA, published 2021).

T1: human IL-17F (human, UniProt Q96PD4 31-163, biotinylated with Sulfo-NHS-LC-Biotin in the AlphaScreen assays only)
T1 construct: also called hIL-17F; recombinant human IL-17F
T1 sequence: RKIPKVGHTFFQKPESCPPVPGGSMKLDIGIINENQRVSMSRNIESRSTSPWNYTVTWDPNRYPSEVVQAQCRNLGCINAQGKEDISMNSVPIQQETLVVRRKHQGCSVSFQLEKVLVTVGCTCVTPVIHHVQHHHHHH

B1: 13B03 (VHH)
VHH: EVQLVESGGGSVQAGDSLRLSCAASGRANSINWFGWFRQTPGKEREFVAGIRWSDAYTEYANSVKGRFTISRDNAKNTVDLQMDSLKPEDTAVYYCVLDLSTVRYWGQGTQVTVSS
notes: Class 4 Nanobody (cross-reactive: anti-IL-17A, IL-17F and IL-17A/F); also called IL17MS13B03; not shown: c-myc, His6 tag
B2: 13E02 (VHH)
VHH: EVQLVESGGGLVQAGGSLRLSCAASGRTYDAMGWLRQAPGKEREFVAAISGSGDDTYYADSVKGRFTISKDNAGITMYLQMNSLKPEDTAVYYCATRRGLYYVWDSNDYENWGQGTQVTVSS
notes: Class 4 Nanobody (cross-reactive: anti-IL-17A, IL-17F and IL-17A/F); also called IL17MS13E02; not shown: c-myc, His6 tag
B3: 10A04 (VHH)
VHH: EVQLVESGGGLVQPGGSLRLSCAASGFTFSSYWMYWVRQAPGKGLEWISALAPGGGNRYYAESVNGRFTISRDNAKNSLYLQMNSLKSEDTAVYYCAKDHNVGYRTGEYDYGGQGTQVTVSS
notes: Class 4 Nanobody (cross-reactive: anti-IL-17A, IL-17F and IL-17A/F); not shown: c-myc, His6 tag
B4: 16A04 (VHH)
VHH: EVQLVESGGGLVQAGGSLRLSCAASGRTFSSYVVGWFRQAPGKEREFIGAISGSGDSIYYAVSEKDRFTISRDNGKNTLYLQMSSLKAEDTAVYYCTADQEFGYLRFGRSEYWGQGTQVTVSS
notes: Class 3 Nanobody (anti-IL-17F); also called IL17MS16A04; not shown: c-myc, His6 tag

Target: T2, human IL-17A/F heterodimer (human, UniProt Q16552 24-155; Q96PD4 31-163, limits assumed, biotinylated with Sulfo-NHS-LC-Biotin in the AlphaScreen assays only)
T2 construct: also called hIL-17A/F
Experiment: AlphaScreen competition, hIL-17A/F - IL-17RA-Fc
Target sequence in this assay (Q16552 24-155 limits assumed, chain 1 of 2, one chain of several): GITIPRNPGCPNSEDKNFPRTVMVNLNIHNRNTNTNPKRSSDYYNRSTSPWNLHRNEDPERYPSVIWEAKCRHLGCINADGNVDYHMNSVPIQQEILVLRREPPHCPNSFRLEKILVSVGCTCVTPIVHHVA
Experimental: (§1) To this mixture, the IL-17RA or IL-17RC Fc-fusions, Acceptor beads and the streptavidin Donor beads were added and further incubated for 1 hour at RT.

B1 and B2 are within 1.5-fold of each other in IC50: 0.079 nM for the first, 0.071 nM for the second.

Going from B3 to B4, the IC50 rises from 37.7 nM to 90.4 nM (2.4-fold). The first is the more potent here.

Target: T1, human IL-17F
Experiment: AlphaScreen competition, hIL-17F - IL-17RA-Fc
Experimental: as §1

Going from B1 to B2, the IC50 falls from 2.11 nM to 0.395 nM (5.3-fold). The second is the more potent here.

B3 and B4 are within 1.5-fold of each other in IC50: 0.746 nM for the first, 1.09 nM for the second.

Target: T2, human IL-17A/F heterodimer
Experiment: SPR Biacore, hIL-17A/F on chip; purified protein

Compared with B1, B2 is 2-fold higher in koff: 3.6e-05 s⁻¹ for the first, 7.1e-05 s⁻¹ for the second.

First: B3
Second: B4
The koff of the first is 5-fold higher: 0.015 s⁻¹ for the first, 0.003 s⁻¹ for the second.

Target: T2, human IL-17A/F heterodimer
Experiment: cell-based or functional assay
Target sequence in this assay (Q16552 24-155 limits assumed, chain 1 of 2, one chain of several): as above

Going from B1 to B2, the “IL-17A/F-induced IL-6 production in HT-1080 cells, Emax” value falls from 112% to 108%.

First: B3
Second: B4
The “IL-17A/F-induced IL-6 production in HT-1080 cells, Emax” value of the first is lower: 79.5% for the first, 95% for the second.

B1 and B2 are within 1.5-fold of each other in “IL-17A/F-induced IL-6 production in HT-1080 cells, IC50” value: 26.8 nM for the first, 21.7 nM for the second.

Compared with B3, B4 is 2.5-fold lower in “IL-17A/F-induced IL-6 production in HT-1080 cells, IC50” value: 122 nM for the first, 48.2 nM for the second.

Target: T3, human IL-17A (human, UniProt Q16552 24-155, biotinylated with Sulfo-NHS-LC-Biotin in the AlphaScreen assays only)
T3 construct: also called hIL-17A; recombinant human IL-17A
Experiment: SPR Biacore, hIL-17A on chip; periplasmic extract (*)

T3 sequence (Q16552 other isoform, or with tags, fused parts or gaps): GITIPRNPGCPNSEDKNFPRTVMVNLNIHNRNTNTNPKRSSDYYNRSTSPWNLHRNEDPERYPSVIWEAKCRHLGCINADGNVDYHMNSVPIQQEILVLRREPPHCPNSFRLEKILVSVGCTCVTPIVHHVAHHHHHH

B3 was tested, and the koff was < 0.0002 s⁻¹.

Target: T3, human IL-17A
Experiment: AlphaScreen competition, hIL-17A - IL-17RA-Fc;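 also: receptor Fc-fusion plus Acceptor and streptavidin Donor beads incubated with the mixture for 1 h at room temperature before reading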
Experimental: as §1

B1 and B2 are within 1.5-fold of each other in IC50: 0.056 nM for the first, 0.067 nM for the second.

B3 and B4 cannot be ordered by IC50: 78.1 nM for the first, > 77.9 nM for the second.

Target: T1, human IL-17F
Experiment: SPR Biacore, hIL-17F on chip; purified protein
Experimental: Off-rates of the periplasmic extracts containing anti-IL-17 Nanobodies were measured by Surface Plasmon Resonance (SPR) using a Biacore T100 instrument. […] Periplasmic extracts containing IL-17 neutralizing Nanobodies were injected for 2 minutes at a flow rate of 45 μl/min to allow binding to chip-bound antigen. Next, binding buffer without periplasmic extracts was sent over the chip at the same flow rate to allow spontaneous dissociation of bound Nanobody. From the sensorgrams obtained for the different periplasmic extracts koff-values (k₄) were calculated.

Going from B1 to B2, the koff falls from 0.0058 s⁻¹ to 0.0036 s⁻¹ (1.6-fold).

Going from B3 to B4, the koff falls from 0.0048 s⁻¹ to 0.00053 s⁻¹ (9.1-fold).

Target: T1, human IL-17F
Experiment: cell-based or functional assay

Going from B1 to B2, the “IL-17F-induced IL-6 production in HT-1080 cells, Emax” value rises from 85.5% to 86.5%.

Compared with B3, B4 is lower in “IL-17F-induced IL-6 production in HT-1080 cells, Emax” value: 102% for the first, 100% for the second.

B1 and B2 are within 1.5-fold of each other in “IL-17F-induced IL-6 production in HT-1080 cells, IC50” value: 149 nM for the first, 104 nM for the second.

B3 and B4 are the same in “IL-17F-induced IL-6 production in HT-1080 cells, IC50” value: 112 nM for the first, 112 nM for the second.

Target: T3, human IL-17A
Experiment: SPR Biacore, hIL-17A on chip; purified protein

First: B1
Second: B2
The koff of the first is 2.1-fold lower: 6.3e-05 s⁻¹ for the first, 0.00013 s⁻¹ for the second.

Target: T3, human IL-17A
Experiment: AlphaScreen competition, hIL-17A - IL-17RC-Fc;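 also: Read-out after 1 h at room temperature with the receptor Fc-fusion, Acceptor beads and streptavidin-coated Donor beads present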
Experimental: as §1

B1 and B2 are within 1.5-fold of each other in IC50: 0.202 nM for the first, 0.187 nM for the second.

B3 and B4 cannot be ordered by IC50: > 250 nM for the first, > 131 nM for the second.

Target: T1, human IL-17F
Experiment: AlphaScreen competition, hIL-17F - IL-17RC-Fc
Experimental: as §1

First: B1
Second: B2
The IC50 of the first is 4-fold higher: 0.848 nM for the first, 0.214 nM for the second. The second is the more potent here.

First: B3
Second: B4
The IC50 of the first is 4.2-fold higher: 0.22 nM for the first, 0.052 nM for the second. The second is the more potent here.

Target: T2, human IL-17A/F heterodimer
Experiment: AlphaScreen competition, hIL-17A/F - IL-17RC-Fc
Target sequence in this assay (Q16552 24-155 limits assumed, chain 1 of 2, one chain of several): as the sequence (Q16552 24-155 limits assumed, chain 1 of 2, one chain of several) above
Experimental: as §1

Compared with B1, B2 is 3.8-fold higher in IC50: 0.031 nM for the first, 0.117 nM for the second. The first is the more potent here.

First: B3
Second: B4
The IC50 of the first is 40-fold higher: 15.6 nM for the first, 0.389 nM for the second. The second is the more potent here.

Target: T3, human IL-17A
Experiment: cell-based or functional assay

Compared with B1, B2 is higher in “IL-17A-induced IL-6 production in HT-1080 cells, Emax” value: 101% for the first, 102% for the second.

In the case of B3, the “IL-17A-induced IL-6 production in HT-1080 cells, Emax” value is reported as 31.5%.

B1 and B2 are within 1.5-fold of each other in “IL-17A-induced IL-6 production in HT-1080 cells, IC50” value: 2.9 nM for the first, 3.5 nM for the second.

B3 was tested, and the “IL-17A-induced IL-6 production in HT-1080 cells, IC50” value was 65.4 nM.
